Sequences and labels used below:
B1: NOTCH3 EGF1–5 R133C (CADASIL-mutated truncated human Notch3 extracellular domain, amino acids 1–234) (domain or fragment)
chain: not shown
notes: signal peptide in the construct; human NOTCH3 extracellular domain, first five EGF-like repeats, amino acids 1–234, with the CADASIL mutation R133C (in EGF3); codon-optimized construct derived from Duering et al., 2011; R133C is a common CADASIL mutation found in patients; also called N3 EGF1–5 R133C; R133C mutant
B2: NOTCH3 EGF1–5 wildtype (truncated human Notch3 extracellular domain, first five EGF-like repeats, amino acids 1–234) (domain or fragment)
chain: not shown
notes: signal peptide in the construct; human NOTCH3 extracellular domain, first five EGF-like repeats, amino acids 1–234; codon-optimized construct derived from Duering et al., 2011; also called N3 EGF1–5 WT; WT N3 EGF1–5
B3: Recombinant human Bri2 BRICHOS domain (domain or fragment, UniProt Q9Y287 137-231, looked up)
chain: FADSDPANIVHDFNKKLTAYLDLNLDKCYVIPLNTSIVMPPRNLLELLINIKAGTYLPQSYLIHEHMVITDRIENIDHLGFFIYRLCHDKETYKL

Bounds are passed on as bounds.

Series [1] deals with the molecule itself. As to the kind of experiment: native gel or EMSA; N3 EGF1–5 proteins at 30 µM in 1 × PBS, 37°C for 80 h with and without Bri2 BRICHOS at 1:1 and 1:2 molar; native loading buffer free of DTT and SDS; 6% native PAGE. (A gel shift assay detects complexes by their altered migration in electrophoresis.)
For series [2], the target named is B1. As to the kind of experiment: cell-based or functional assay.

Regarding B1, the binding result in series [1] is “binds”.

As to B2, the binding result in series [1] was “binds”.

In the case of B3, the “final aggregation intensity of R133C by turbidity at 360 nm, 37°C, 10 µM, BRICHOS at 1:1 molar ratio” value in series [2] was at most 50 % reduction.

(Values after paper PMC8864064, “Molecular Chaperone BRICHOS Inhibits CADASIL-Mutated NOTCH3 Aggregation In Vitro” (Frontiers in Molecular Biosciences, 2022).)
